Results on 4 molecules are retold here after patent US9353421, “Aptamers that are specific for immunoglobulin-binding cell wall proteins” (Helmholtz-Zentrum für Umweltforschung GmbH-UFZ).

Data set [1] addresses Protein A (recombinant) (UniProt P02976 P02976:37-485). Nature of the data set: SPR; steady-state avidity (bivalent analyte); 100 mM NaCl, 20 mM Tris-HCl pH 7.6, 10 mM MgCl2, 5 mM KCl, 1 mM CaCl2, 0.005% SP20. To be noted: tags: Sigma-Aldrich P7837; label: 3'-biotin. The source says: (§1) These changes are emitted as a measurable signal, expressed in resonance units (RU), and are proportional to the amount of target bound on the sensor surface. In the experiments presented here, non-specific ssDNA (SELEX library, 3'-biotinylated) was immobilized in the reference cell and ssDNA of the aptamer PA#2/8 (3'-biotinylated) was immobilized in the measurement cell. The target solution, comprising recombinant protein A (P7837, Sigma-Aldrich, Germany) or native protein A (P3838, Sigma-Aldrich, Germany) in binding buffer (100 mM NaCl, 20 mM Tris-HCl, pH 7.6, 10 mM MgCl_2, 5 mM KCl, 1 mM CaCl_2) with 0.005% SP20, was passed over the prepared sensor surfaces at a flow rate of 10 µl/min. […] The sensorgrams (FIG. 6, 8) show the double-referenced signal curve (measurement cell minus reference cell and buffer reference) during the binding and dissociation phase at different target concentrations in a range of 10 nM-5,000 nM protein A. During such a measurement series the 1,000 nM concentration of protein A was measured 3 times as a control. […]
(§2) From the binding data at the end of each binding phase with the different protein A concentrations a saturation curve was plotted (FIG. 7, 9) and the steady state affinity of the aptamer PA#2/8 for protein A was calculated from this. […]
(In general: SPR reads the build-up and loss of mass on a sensor chip optically.)

Data set [2] deals with Protein A (native) (UniProt P02976 P02976:37-485). The data set is described as above. To be noted: tags: Sigma-Aldrich P3838; label: 3'-biotin.
Text: as §1, §2

The target of data set [3] is T1, Protein A (native, biotinylated) (Staphylococcus aureus, UniProt P02976 P02976:37-485). Nature of the data set: pulldown; magnetic bead binding; complete loss of binding; 10 mM MgCl2, 21 C. To be noted: tags: biotin, immobilized on streptavidin Dynabeads M-280; Sigma-Aldrich P2165; label: fluorescein. The procedure: (§3) The binding experiments were carried out under the SELEX conditions. 2.5-3 ×10^7 target-modified magnetic beads and ~55 pmol of fluorescein-labeled aptamer ssDNA in binding buffer (100 mM NaCl, 20 mM Tris-HCl, pH 7.6, 10 mM MgCl_2, 5 mM KCl, 1 mM CaCl_2) were employed for each experiment. The target-modified magnetic beads were prepared as a preliminary to the binding experiments, wherein Dynabeads® M-280 Streptavidin (Invitrogen, UK) were used in order to immobilize native, biotinylated protein A from *Staphylococcus aureus* (P2165, Sigma-Aldrich, Germany). Before each binding reaction the target-modified magnetic beads were washed several times in binding buffer and the aptamer ssDNA was thermally equilibrated by incubation at 90° C. for 8 min, on ice for 10 min and then converted to RT for ~5 min. The prepared aptamer ssDNA and the washed target-modified magnetic beads were then brought together for binding and incubated for 30 min at 21° C., while shaking. The non-bound ssDNA was removed and the binding complexes were washed several times in binding buffer. Thereafter, the target-bound ssDNA was eluted by means of heat by incubation of the binding complexes in binding buffer at 95° C. for 10 min, while shaking. […] The amount of ssDNA eluted could be quantified on the basis of the fluorescein labeling of the aptamer ssDNA and by means of a calibration curve. […]

In data set [4] the target is T1, Protein A (native, biotinylated). Briefly: pulldown; magnetic bead binding; retained and even improved vs full length; 10 mM MgCl2, 21 C. The following applies: tags: biotin, immobilized on streptavidin Dynabeads M-280; Sigma-Aldrich P2165; label: fluorescein. The method, then: as §3
For data set [5] the target is unchanged. Briefly: pulldown; magnetic bead binding; negative result; 10 mM MgCl2, 21 C. The following applies: tags: biotin, immobilized on streptavidin Dynabeads M-280; Sigma-Aldrich P2165; label: fluorescein. The procedure:
as §3

T1 sequence (P02976 37-485, one chain of several): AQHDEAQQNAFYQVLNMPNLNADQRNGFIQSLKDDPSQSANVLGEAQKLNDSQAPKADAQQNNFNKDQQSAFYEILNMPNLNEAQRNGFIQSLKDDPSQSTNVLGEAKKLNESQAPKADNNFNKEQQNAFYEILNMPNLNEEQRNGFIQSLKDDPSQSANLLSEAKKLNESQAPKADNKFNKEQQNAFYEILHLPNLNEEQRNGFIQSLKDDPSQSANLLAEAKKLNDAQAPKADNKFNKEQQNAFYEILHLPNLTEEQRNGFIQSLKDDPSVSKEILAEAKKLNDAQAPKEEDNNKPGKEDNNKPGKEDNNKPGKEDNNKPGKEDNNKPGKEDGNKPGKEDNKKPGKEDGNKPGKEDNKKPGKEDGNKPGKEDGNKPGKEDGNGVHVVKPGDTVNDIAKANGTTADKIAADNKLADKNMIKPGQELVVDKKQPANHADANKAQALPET
Sequence of Protein A (native) (P02976 37-485, one chain of several): as above
Sequence of Protein A (recombinant) (P02976 37-485, one chain of several): as above

B1: PA#2/8 (3'-biotin) (ssDNA)
DNA: ATACCAGCTTATTCAATTAGCAACATGAGGGGGATAGAGGGGGTGGGTTCTCTCGGCTACAATCGTAATCAGTTAG
As for B1, the Kd in data set [1] was found to be 188 nM; in data set [2] it was 75.3 nM.

B2: PA#2/8 [A19-76] (ssDNA)
DNA: AGCAACATGAGGGGGATAGAGGGGGTGGGTTCTCTCGGCTACAATCGTAATCAGTTAG
Regarding B2, the binding result in data set [3] is “no binding”.

B3: PA#2/8 [A1-58] (ssDNA)
DNA: ATACCAGCTTATTCAATTAGCAACATGAGGGGGATAGAGGGGGTGGGTTCTCTCGGCT
With B3, the binding result in data set [4] was “binds”.
Consider AGCAACATGAGGGGGATAGAGGGGGTGGGTTCTCTCGGCT (ssDNA) [PA#2/8CR40], for which, in data set [5], the binding result is on record as “no binding”.
